Tested on: peptide library, one residue held at a place counted from the S/T acceptor
Test: relative phosphorylation of the sub-library (ratio to the mean residue at this position); human; higher = residue favoured
Outline: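 Each biotinylated degenerate peptide sub-library fixed one residue at one position around a central Ser/Thr and was incubated with a purified recombinant kinase, a human or orthologue construct, in 384-well plates. The 90 min reactions, under kinase-specific conditions, contained 50 μM peptide and 50 μM ATP spiked with γ-32P-ATP. Phosphorylation was read by phosphorimaging spots on streptavidin membranes and quantifying them by densitometry. Relative sub-library phosphorylation expresses each value as a ratio to the mean residue at that position.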

Sequence of CAMK2D, construct: Full length (Q13557 whole entry, looked up): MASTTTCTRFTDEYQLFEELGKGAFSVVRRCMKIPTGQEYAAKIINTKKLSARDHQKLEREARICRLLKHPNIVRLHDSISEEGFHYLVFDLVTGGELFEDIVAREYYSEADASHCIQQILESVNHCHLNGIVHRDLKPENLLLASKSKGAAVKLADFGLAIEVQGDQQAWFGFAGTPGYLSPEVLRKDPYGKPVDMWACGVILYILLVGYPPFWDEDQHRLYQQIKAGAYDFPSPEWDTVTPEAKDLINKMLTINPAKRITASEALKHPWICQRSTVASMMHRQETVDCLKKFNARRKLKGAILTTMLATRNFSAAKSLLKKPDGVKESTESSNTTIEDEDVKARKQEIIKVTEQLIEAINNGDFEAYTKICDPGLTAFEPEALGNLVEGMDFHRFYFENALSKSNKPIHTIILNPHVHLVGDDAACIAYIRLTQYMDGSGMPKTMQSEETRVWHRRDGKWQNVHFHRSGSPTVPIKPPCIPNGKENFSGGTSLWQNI
Sequence of SLK, construct: Full length (Q9H2G2 whole entry, looked up): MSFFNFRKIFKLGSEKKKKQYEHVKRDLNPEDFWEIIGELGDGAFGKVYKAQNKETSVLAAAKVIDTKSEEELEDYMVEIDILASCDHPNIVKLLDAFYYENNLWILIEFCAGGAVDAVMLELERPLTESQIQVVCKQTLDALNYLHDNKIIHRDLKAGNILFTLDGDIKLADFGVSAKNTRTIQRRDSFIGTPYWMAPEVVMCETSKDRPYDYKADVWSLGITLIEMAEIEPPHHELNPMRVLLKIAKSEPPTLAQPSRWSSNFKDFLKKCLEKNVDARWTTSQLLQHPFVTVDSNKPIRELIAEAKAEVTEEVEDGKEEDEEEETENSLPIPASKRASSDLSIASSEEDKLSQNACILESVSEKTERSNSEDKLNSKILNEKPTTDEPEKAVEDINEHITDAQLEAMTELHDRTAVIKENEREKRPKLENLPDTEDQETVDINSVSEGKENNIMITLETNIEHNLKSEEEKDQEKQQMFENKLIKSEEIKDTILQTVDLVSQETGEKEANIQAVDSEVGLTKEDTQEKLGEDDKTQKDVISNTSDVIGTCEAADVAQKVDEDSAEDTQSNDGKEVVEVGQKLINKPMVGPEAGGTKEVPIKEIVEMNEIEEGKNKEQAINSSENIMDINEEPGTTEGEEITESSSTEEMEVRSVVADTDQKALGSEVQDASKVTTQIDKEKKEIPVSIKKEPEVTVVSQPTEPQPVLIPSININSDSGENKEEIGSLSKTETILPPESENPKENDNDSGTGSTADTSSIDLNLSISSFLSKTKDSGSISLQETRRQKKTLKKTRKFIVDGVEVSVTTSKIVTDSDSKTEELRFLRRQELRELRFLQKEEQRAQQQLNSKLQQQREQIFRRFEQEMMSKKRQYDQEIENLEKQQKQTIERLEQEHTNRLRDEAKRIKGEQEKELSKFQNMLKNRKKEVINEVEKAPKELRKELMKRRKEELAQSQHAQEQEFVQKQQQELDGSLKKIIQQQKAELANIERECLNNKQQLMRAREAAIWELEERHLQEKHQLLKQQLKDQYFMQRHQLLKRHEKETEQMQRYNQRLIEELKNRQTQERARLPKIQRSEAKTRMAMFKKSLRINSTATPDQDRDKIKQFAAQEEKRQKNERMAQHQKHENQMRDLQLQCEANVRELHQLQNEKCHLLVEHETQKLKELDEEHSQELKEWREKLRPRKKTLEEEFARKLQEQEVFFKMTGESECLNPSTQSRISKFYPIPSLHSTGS
Sequence of NEK4, construct: Full length (P51957 whole entry, looked up): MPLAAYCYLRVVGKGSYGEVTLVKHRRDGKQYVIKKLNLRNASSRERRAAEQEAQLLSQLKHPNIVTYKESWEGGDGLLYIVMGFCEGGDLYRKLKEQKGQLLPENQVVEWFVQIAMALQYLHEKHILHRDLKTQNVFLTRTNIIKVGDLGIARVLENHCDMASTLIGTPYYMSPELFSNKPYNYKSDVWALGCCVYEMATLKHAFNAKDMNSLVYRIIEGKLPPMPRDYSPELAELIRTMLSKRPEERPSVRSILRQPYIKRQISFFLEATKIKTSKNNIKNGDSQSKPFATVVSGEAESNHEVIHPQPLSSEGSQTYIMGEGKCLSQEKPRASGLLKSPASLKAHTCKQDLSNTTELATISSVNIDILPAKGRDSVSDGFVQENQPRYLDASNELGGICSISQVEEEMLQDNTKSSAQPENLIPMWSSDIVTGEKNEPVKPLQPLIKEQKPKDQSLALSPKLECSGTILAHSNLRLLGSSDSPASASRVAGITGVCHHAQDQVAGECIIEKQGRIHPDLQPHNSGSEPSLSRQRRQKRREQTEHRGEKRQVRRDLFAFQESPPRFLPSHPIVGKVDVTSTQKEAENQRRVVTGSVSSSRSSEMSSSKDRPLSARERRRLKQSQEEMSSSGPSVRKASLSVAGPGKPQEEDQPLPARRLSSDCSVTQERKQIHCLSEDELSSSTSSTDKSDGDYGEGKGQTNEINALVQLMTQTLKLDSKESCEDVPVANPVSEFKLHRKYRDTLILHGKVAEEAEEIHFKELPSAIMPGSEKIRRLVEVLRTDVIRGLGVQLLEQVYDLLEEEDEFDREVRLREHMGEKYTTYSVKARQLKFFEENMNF

CAMK2D, construct: Full length (from UniProt Q13557)
relative phosphorylation
Conditions	at +1	at +2	at +3	at +4	at -1	at -2	at -3	at -4	at -5
A fixed	0.696	0.903	1.09	1.13	1.05	1.26	0.926	1.07	0.966
D fixed	0.461	3.3	1.4	1.45	0.967	0.476	0.264	0.439	0.415
E fixed	0.719	2.31	1.46	1.41	0.674	0.625	0.316	0.691	0.378
F fixed	2.39	0.604	0.852	0.726	0.811	0.914	0.887	1.22	1.38
G fixed	0.609	1.06	1.51	1.38	1.17	1.41	0.814	1.03	0.827
H fixed	0.719	1.03	1.17	0.962	1.08	0.894	1.05	0.86	0.922
I fixed	1.93	0.599	0.699	0.705	0.699	0.547	0.575	0.946	1.11
K fixed	0.476	0.569	0.669	0.688	1.21	0.858	1.68	0.967	0.794
L fixed	1.44	0.553	0.894	0.686	0.893	0.62	0.626	1.03	1.7
M fixed	1.72	0.605	0.793	0.711	1.15	1.12	0.782	1.2	1.22
N fixed	0.705	1.17	0.981	1.03	1.23	0.956	0.689	0.707	0.597
P fixed	0.278	0.626	1.09	1.81	1.55	0.45	0.909	1.02	1.12
Q fixed	1.17	0.957	1.03	1	1.16	2.51	0.973	0.875	0.708
R fixed	0.5	0.716	0.61	0.549	0.882	1.02	3.93	1.09	1.03
V fixed	1.65	0.676	0.835	0.787	0.728	0.655	0.551	0.926	0.92
W fixed	0.636	0.619	0.977	1.1	0.7	1.74	1.19	1.66	1.68
Y fixed	0.9	0.702	0.963	0.88	1.05	0.949	0.844	1.27	1.24
pThr fixed	1.02	1.01	1.39	2.4	0.353	0.348	0.448	0.653	0.605
pTyr fixed	0.872	3.27	1.12	1.45	0.933	0.349	0.424	0.609	0.606

SLK, construct: Full length (from UniProt Q9H2G2)
relative phosphorylation
Conditions	at +1	at +2	at +3	at +4	at -1	at -2	at -3	at -4	at -5
A fixed	0.368	0.647	0.652	0.778	0.576	0.458	0.681	1.05	1.07
D fixed	0.242	0.669	0.58	1.14	0.484	0.531	0.8	1.09	1.57
E fixed	0.198	0.358	0.515	0.774	0.33	0.306	0.686	1.08	1
F fixed	1.23	0.482	0.699	0.768	0.781	2.5	0.948	0.894	0.915
G fixed	0.428	0.917	1.01	1.04	0.478	0.424	0.641	1.2	1.06
H fixed	0.835	1.38	1.13	1.15	1.16	0.848	1.14	1.04	1.2
I fixed	1.39	0.349	0.454	0.648	0.287	0.263	0.314	0.6	0.552
K fixed	1.24	2.1	2.23	1.47	3.28	1.41	2.4	1.06	1.48
L fixed	2.29	0.478	0.632	0.8	0.881	0.357	0.386	0.706	0.617
M fixed	2.25	0.614	0.61	0.801	0.904	0.568	0.565	0.747	0.691
N fixed	0.877	1.22	1.27	1.04	1.59	0.737	1.11	0.85	1.21
P fixed	0.399	1.22	1.89	1.47	0.756	0.613	1	1.68	0.872
Q fixed	0.818	1.04	0.918	1.22	1.27	0.604	1.01	0.918	0.744
R fixed	1.11	3.74	2.14	1.45	1.68	1.13	1.79	1.11	1.31
V fixed	0.673	0.445	0.514	0.598	0.35	0.306	0.326	0.688	0.716
W fixed	1.49	0.745	0.911	1.04	0.781	0.862	1.95	1.36	1.12
Y fixed	1.16	0.599	0.844	0.81	1.41	5.07	1.26	0.95	0.872
pThr fixed	0.61	1	0.916	0.839	0.431	0.525	0.878	1.28	1.27
pTyr fixed	0.455	0.581	0.811	0.641	0.392	0.921	1.16	1.07	1.03

NEK4, construct: Full length (from UniProt P51957)
relative phosphorylation
Conditions	at +1	at +2	at +3	at +4	at -1	at -2	at -3	at -4	at -5
A fixed	0.695	0.961	0.797	0.821	1.32	0.985	1.18	1.02	0.983
D fixed	0.169	0.409	0.375	0.693	0.63	0.601	0.422	0.811	0.797
E fixed	0.153	0.368	0.341	0.66	0.638	0.505	0.416	0.733	0.662
F fixed	1.03	0.851	1.73	1.03	0.868	1.16	1.64	1.14	1.21
G fixed	0.921	0.795	0.91	1.16	1.25	1.16	1.2	1.32	1.04
H fixed	0.775	1.2	1.1	1.08	1.02	1.02	0.998	1.05	1.03
I fixed	1.63	0.625	0.899	0.69	0.583	0.8	0.658	0.754	0.822
K fixed	0.974	2.01	0.977	1.56	1.4	0.902	0.985	1.17	1.16
L fixed	2.19	0.939	1.23	0.996	1.06	1.61	1.9	1.12	0.79
M fixed	2.2	1.04	1.07	0.932	1.36	1.47	1.72	0.969	0.966
N fixed	0.592	0.86	0.652	0.92	0.935	1.43	0.674	0.913	0.962
P fixed	0.176	0.993	1.03	1.28	0.374	0.588	0.973	0.912	1.22
Q fixed	1.02	0.971	0.842	1.08	1.09	1.01	0.766	0.916	0.983
R fixed	1.17	2.43	1.25	1.31	1.77	1.07	0.953	1.04	1.32
V fixed	0.929	0.838	0.74	0.653	0.666	0.677	0.573	0.835	0.878
W fixed	1.44	0.722	1.62	1.25	0.925	1.18	1.02	1.31	1.11
Y fixed	0.937	0.986	1.44	0.891	1.09	0.832	0.921	1	1.08
pThr fixed	0.423	0.506	0.526	0.476	0.332	0.64	0.735	0.793	0.867
pTyr fixed	0.248	0.588	0.557	0.506	0.752	1.11	0.806	0.755	1.01

Reference: the supplement of paper PMC9876800
